Assay results taken from patent publication US20220177594A1.
Changes are numbered by the printed parent chain. One block for each binder: values may come before it.

What was measured:
[1] = biological target: Canine_OSMR_hlgG1_Fc (canine); assay: SPR Biacore
[2] = biological target: Feline_OSMR_hlgG1_Fc (feline); assay: SPR Biacore
[3] = biological target: Feline_OSMR_hlgG1_Fc (feline); assay: indirect ELISA, fOSMR coated; OD ratio to antibody expression control

Canine_OSMR_hlgG1_Fc (canine), sequence (chain, as listed by the source limits assumed, form in doubt): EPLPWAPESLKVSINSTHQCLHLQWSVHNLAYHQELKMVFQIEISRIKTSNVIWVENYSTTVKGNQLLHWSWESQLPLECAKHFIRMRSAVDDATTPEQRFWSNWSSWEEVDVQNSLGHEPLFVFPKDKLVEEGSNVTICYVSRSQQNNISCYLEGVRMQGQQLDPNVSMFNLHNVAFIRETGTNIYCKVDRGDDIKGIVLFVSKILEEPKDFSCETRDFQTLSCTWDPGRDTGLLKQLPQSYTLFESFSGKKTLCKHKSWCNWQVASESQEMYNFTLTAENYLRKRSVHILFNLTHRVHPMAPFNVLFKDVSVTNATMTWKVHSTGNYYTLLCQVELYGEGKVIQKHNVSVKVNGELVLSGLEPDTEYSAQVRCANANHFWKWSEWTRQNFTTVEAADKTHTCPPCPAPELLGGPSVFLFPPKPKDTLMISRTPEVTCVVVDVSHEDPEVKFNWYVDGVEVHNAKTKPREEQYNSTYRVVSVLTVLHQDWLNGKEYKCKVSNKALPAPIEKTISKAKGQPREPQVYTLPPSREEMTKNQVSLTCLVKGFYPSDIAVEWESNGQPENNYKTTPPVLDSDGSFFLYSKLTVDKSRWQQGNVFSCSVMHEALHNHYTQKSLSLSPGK
Feline_OSMR_hlgG1_Fc (feline), sequence (chain, as listed by the source limits assumed, form in doubt): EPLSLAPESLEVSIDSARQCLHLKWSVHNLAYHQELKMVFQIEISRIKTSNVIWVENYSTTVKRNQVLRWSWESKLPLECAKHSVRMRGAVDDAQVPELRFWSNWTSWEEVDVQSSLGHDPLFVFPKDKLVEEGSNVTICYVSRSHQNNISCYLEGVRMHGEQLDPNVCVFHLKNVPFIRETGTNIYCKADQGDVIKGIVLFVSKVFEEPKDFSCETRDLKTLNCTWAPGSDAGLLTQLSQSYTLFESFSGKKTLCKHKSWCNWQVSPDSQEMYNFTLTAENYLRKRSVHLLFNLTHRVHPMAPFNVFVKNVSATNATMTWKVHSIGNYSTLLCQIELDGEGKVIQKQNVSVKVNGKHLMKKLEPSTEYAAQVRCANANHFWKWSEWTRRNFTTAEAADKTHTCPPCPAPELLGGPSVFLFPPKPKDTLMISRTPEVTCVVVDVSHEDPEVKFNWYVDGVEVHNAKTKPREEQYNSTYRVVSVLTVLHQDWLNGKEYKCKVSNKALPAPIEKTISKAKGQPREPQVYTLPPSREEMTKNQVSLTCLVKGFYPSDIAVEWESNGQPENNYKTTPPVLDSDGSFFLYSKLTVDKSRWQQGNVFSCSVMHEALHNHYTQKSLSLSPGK

- Kd [1]: 13.3 nM
- koff [1]: 0.000885 s⁻¹
- kon [1]: 66500 M⁻¹ s⁻¹
- Kd [2]: 4.75 nM
- koff [2]: 0.00061 s⁻¹
- kon [2]: 128000 M⁻¹ s⁻¹
B2: FEL_10F07_1.2 (antibody)
heavy: DVQLVESGGDLVKPGGSLRLTCVASGFTYSSYAMSWVRQAPGKGLQWVAYISSGGDYFYYADTVKGRFTISRDNAKNTLYLQMNSLKTEDTATYYCVRDPITGTFAYWGQGTLVTVSSASTTAPSVFPLAPSCGTTSGATVALACLVLGYFPEPVTVSWNSGALTSGVHTFPAVLQASGLYSLSSMVTVPSSRWLSDTFTCNVAHPPSNTKVDKTVRKTDHPPGPKPCDCPKCPPPEAAGAPSIFIFPPKPKDTLSISRTPEVTCLVVDLGPDDSDVQITWFVDNTQVYTAKTSPREEQFNSTYRVVSVLPILHQDWLKGKEFKCKVNSKSLPSPIERTISKAKGQPHEPQVYVLPPAQEELSRNKVSVTCLIKSFHPPDIAVEWEITGQPEPENNYRTTPPQLDSDGTYFVYSKLSVDRSHWQRGNTYTCSVSHEALHSHHTQKSLTQSPGK
light: DITMTQSPGSLAGSPGQQVTMNCRASQDITNYLNWYQQKPGQHPKLLIYYTSTLHSGVPDRFSGSGSGTDFTLTISNLQAEDVASYYCQQGHMLPWTFGQGTRSDAQPSVFLFQPSLDELHTGSASIVCILNDFYPKEVNVKWKVDGVVQNKGIQESTTEQNSKDSTYSLSSTLTMSSTEYQSHEKFSCEVTHKSLASTLVKSFQRSECQRE

- Kd [1]: 10 nM
- koff [1]: 0.000851 s⁻¹
- kon [1]: 85000 M⁻¹ s⁻¹
- Kd [2]: 2.2 nM
- koff [2]: 0.00042 s⁻¹
- kon [2]: 191000 M⁻¹ s⁻¹
B3: FEL_10F07_2.1 (antibody)
heavy: B2 heavy with Y29F, N74D, N84S, V97T, R98G
light: EIQMTQSPSSLSASPGDRVTITCRASQDITNYLNWYQQKPGKVPKLLIYYTSTLHSGVPSRFSGSGSGTDFTLTISSLEPEDAATYYCQQGHMLPWTFGQGTRSDAQPSVFLFQPSLDELHTGSASIVCILNDFYPKEVNVKWKVDGVVQNKGIQESTTEQNSKDSTYSLSSTLTMSSTEYQSHEKFSCEVTHKSLASTLVKSFQRSECQRE

- ELISA ratio [3]: 0 OD ratio
B5: Mu_09E09_VL (SEQ ID NO: 37)_W96A (antibody, V domains shown)
VH: DVKLVESGEGLVKPGGSLKLSCAASGFTFSSYAMSWVRQTPEKRLEWVAYISSGGDYIYYADTVKGRFTISRDNARNTLYLQMSSLKSEDTAMYYCTRDPITGTFAYWGQGTLVTVSA
VL: DLQMTQTTSSLSASLGDRVTISCRASQDINNYLNWYQQKPDGTVKLLIYYTSTLHSGVPSRFSGSGSGTDYSLTISNLEQEDIATYFCQQGNTLPATFGGGTKLEIKR

- ELISA ratio [3]: 0 OD ratio
B7: Mu_09E09_VH (SEQ ID NO: 35)_I101A (antibody, V domains shown)
VH: B5 VH with I101A
VL: B5 VL with A96W

- ELISA ratio [3]: 0.015 OD ratio
B9: Mu_09E09_VL (SEQ ID NO: 37)_N92A (antibody, V domains shown)
VH: B5 VH
VL: B5 VL with N92A, A96W

- ELISA ratio [3]: 0.277 OD ratio
B10: Mu_19F07_VH (SEQ ID NO: 47)_S56A (antibody, V domains shown)
VH: EVKLVESEGGLVQPGSSMKLSCTASGFTFSDYYMAWVRQVPEKGLEWVANINYDGASTYYLDSLKSRFIISRDNAKNILYLQMSSLKSEDTATYYCARGLTWDFDVWGTGTTVTVSS
VL: DIVMTQSHKFMSPSVGDRVSITCKASQDVDTAVAWYQQKPGQSPKLLIYLASTRHTGVPDRFTGSGSGTDFTLTISNVQSEDLADYFCQQYSRFPLTFGAGTKLELKR

- Kd [2]: 6.13 nM
- koff [2]: 0.0014 s⁻¹
- kon [2]: 229000 M⁻¹ s⁻¹
- ELISA ratio [3]: 0.158 OD ratio
B13: Mu_02D09_VH (SEQ ID NO: 31)_G33A (antibody, V domains shown)
VH: EVQLVESGGGLVKPGGSLTLSCAASGFTFSDYAMHWLRQAPEKGLEWVAYISSGSRAVFFADTVKGRFTISRDNAKNTLFLQMTSLRSDDTAMYYCARDRYDGRGFAYWGQGTLVTVSA
VL: DIVLTQSPATLSVTPGDSVSLSCRASQSISNNLHWYQQTSHESPRLLITYASQSISGIPSRFSGSGSGTDFTLSINSVETEDFGMYFCQQSNSWPLTFGAGTKLELKR

The next lines start with the binder.

B1: FEL_09E09_1.1 (antibody)
heavy: B2 heavy with F58I
light: B3 light with T30N, H92N, M93T
- Kd [1]: 18.2 nM
- koff [1]: 0.00105 s⁻¹
- kon [1]: 57500 M⁻¹ s⁻¹
- Kd [2]: 7.73 nM
- koff [2]: 0.000979 s⁻¹
- kon [2]: 127000 M⁻¹ s⁻¹

B4: Mu_09E09_VH (SEQ ID NO: 35)_Y59A (antibody, V domains shown)
VH: B5 VH with Y59A
VL: B5 VL with A96W
- ELISA ratio [3]: 0.011 OD ratio

B6: Mu_09E09_VL (SEQ ID NO: 37)_Q90A (antibody, V domains shown)
VH: B5 VH
VL: B5 VL with Q90A, A96W
- ELISA ratio [3]: 0.183 OD ratio

B8: Mu_09E09_VL (SEQ ID NO: 37)_Y50A (antibody, V domains shown)
VH: B5 VH
VL: B5 VL with Y50A, A96W
- ELISA ratio [3]: 0 OD ratio

B11: Mu_19F07_VH (SEQ ID NO: 47)_Y60A (antibody, V domains shown)
VH: B10 VH with A56S, Y60A
VL: B10 VL
- ELISA ratio [3]: 0.479 OD ratio

B12: Mu_19F07_VH (SEQ ID NO: 47)_W102A (antibody, V domains shown)
VH: B10 VH with A56S, W102A
VL: B10 VL
- ELISA ratio [3]: 0.057 OD ratio

B14: Mu_02D09_VH (SEQ ID NO: 31)_D102A (antibody, V domains shown)
VH: B13 VH with A33G, D102A
VL: B13 VL
- Kd [2]: 13.9 nM
- koff [2]: 0.00174 s⁻¹
- kon [2]: 125000 M⁻¹ s⁻¹
- ELISA ratio [3]: 0.058 OD ratio

B15: Mu_02D09_VH (SEQ ID NO: 31)_S52A (antibody, V domains shown)
VH: B13 VH with A33G, S52A
VL: B13 VL
- Kd [2]: 0.736 nM
- koff [2]: 0.000483 s⁻¹
- kon [2]: 656000 M⁻¹ s⁻¹
- ELISA ratio [3]: 0.001 OD ratio

B16: Mu_02D09_VH (SEQ ID NO: 31)_H35A (antibody, V domains shown)
VH: B13 VH with A33G, H35A
VL: B13 VL
- Kd [2]: 8.05 nM
- koff [2]: 0.00108 s⁻¹
- kon [2]: 134000 M⁻¹ s⁻¹
- ELISA ratio [3]: 0.03 OD ratio

B17: Mu_02D09_VH (SEQ ID NO: 31)_Y101A (antibody, V domains shown)
VH: B13 VH with A33G, Y101A
VL: B13 VL
- Kd [2]: 11.5 nM
- koff [2]: 0.00194 s⁻¹
- kon [2]: 169000 M⁻¹ s⁻¹
- ELISA ratio [3]: 0.32 OD ratio

B18: Mu_02D09_VH (SEQ ID NO: 31)_Y50A (antibody, V domains shown)
VH: B13 VH with A33G, Y50A
VL: B13 VL
- Kd [2]: 0.00119 nM
- koff [2]: 1.2e-07 s⁻¹
- kon [2]: 100000 M⁻¹ s⁻¹
- ELISA ratio [3]: 0.009 OD ratio

B19: Mu_02D09_VH (SEQ ID NO: 31)_D99A (antibody, V domains shown)
VH: B13 VH with A33G, D99A
VL: B13 VL
- Kd [2]: 1.13 nM
- koff [2]: 0.000463 s⁻¹
- kon [2]: 408000 M⁻¹ s⁻¹
- ELISA ratio [3]: 0 OD ratio

B20: Mu_02D09_VH (SEQ ID NO: 31)_D62A (antibody, V domains shown)
VH: B13 VH with A33G, D62A
VL: B13 VL
- Kd [2]: 0.00211 nM
- koff [2]: 2.31e-07 s⁻¹
- kon [2]: 109000 M⁻¹ s⁻¹
- ELISA ratio [3]: 0.01 OD ratio
